Target: EGFP-N-Talin1-C-mCherry (UniProt P26039)
Assay: single-molecule photobleaching step counting and point spread function fit (TIRF microscopy); living CV1 cells with low expression of EGFP-Talin1-mCherry; EGFP spots more than 500 nm from other EGFPs; bleaching steps counted and the spot shape fitted to a single or a dimeric PSF
Settings: remark: other sources report otherwise

stoichiometry N: 2
Substance: EGFP-N-Talin1-C-mCherry, P26039 1-2541

Reference: PMC3243729
